Assay [1] concerns the target T1, Wild type CD117 purified protein (human, UniProt P10721 26-520, limits assumed).
T1 construct: Protein used in BLI/kinetics and cryo-EM; also called wt CD117; Wt CD117
Description: binding kinetics, FIGS. 45A-45K.

Assay [2] deals with T2, CC128 variant of CD117 (Y259C + N260D) purified protein (human, UniProt P10721 26-520, limits assumed).
T2 construct: also called CC128-edited CD117 as purified protein
Put plainly: binding kinetics, FIGS. 45A-45K.

For assay [3], the target named is CC200 variant of CD117 (S261G) purified protein (human, UniProt P10721 26-520, limits assumed). Put plainly: binding kinetics, FIGS. 45A-45K.
The next assay deals with T3, Cyno CD117 (cynomolgus, UniProt F6V858 26-520 (rhesus entry)).
T3 construct: also called cynomolgus CD117
Description: KD, method not stated (Table 8B).

In assay [4] the target is T1, Wild type CD117 purified protein. Description: KD, method not stated (Table 8B).
Assay [5] addresses T4, CC89 variant of CD117 (T144A) on M07e cells (human, UniProt P10721 26-976).
T4 construct: also called CC89-M07e
Put plainly: binding to edited M07e cells (Table 8B).

Assay [6] deals with T5, Wild type CD117 expressed on cells (M07e cells, unedited human CD34+ HSPCs) (human, UniProt P10721 26-976). Description: cell-based or functional assay.
The target of assay [7] is T1, Wild type CD117 purified protein. Put plainly: summary Table 75 (repeats Table 71).
For assay [8], the target named is T5, Wild type CD117 expressed on cells …. Description: summary Table 75 (repeats Table 73).
Assay [9] has as its target T1, Wild type CD117 purified protein. Put plainly: monovalent KD, CD117 titrated (FIGS. 73A-73E).
The target of assay [10] is T5, Wild type CD117 expressed on cells …. Description: flow cytometry on M07e cells, AF647 secondary (FIG. 76A). On the technique in general: Flow cytometry measures light scatter and fluorescence of single cells or particles in a stream.
Assay [11] deals with T6, CC128 variant of CD117 (Y259C + N260D) expressed on cells (M07e, CD34+ HSPCs) (human, UniProt P10721 26-976).
T6 construct: Edited cell pools also hold minor alleles (Y259C alone, N260D alone); also called CC128-edited CD117; CC128-M07e
Put plainly: binding to edited M07e cells (Table 8B).

Assay [12] concerns the target T5, Wild type CD117 expressed on cells …. Description: cell-based or functional assay. This is another data set of the same source.

T3 sequence (chain, as listed by the source): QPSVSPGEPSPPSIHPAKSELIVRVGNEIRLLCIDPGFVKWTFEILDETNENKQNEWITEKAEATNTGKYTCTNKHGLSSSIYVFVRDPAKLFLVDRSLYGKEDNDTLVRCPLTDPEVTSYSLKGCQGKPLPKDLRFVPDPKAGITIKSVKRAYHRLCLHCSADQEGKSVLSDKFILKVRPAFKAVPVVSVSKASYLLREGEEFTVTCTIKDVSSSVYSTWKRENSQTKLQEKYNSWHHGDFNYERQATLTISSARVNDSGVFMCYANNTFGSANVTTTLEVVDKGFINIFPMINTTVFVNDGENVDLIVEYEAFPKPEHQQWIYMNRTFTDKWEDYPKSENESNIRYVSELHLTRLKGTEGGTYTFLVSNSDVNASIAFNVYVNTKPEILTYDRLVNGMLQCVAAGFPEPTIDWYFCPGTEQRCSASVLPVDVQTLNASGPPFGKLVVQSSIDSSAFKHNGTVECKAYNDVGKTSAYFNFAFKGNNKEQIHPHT
CC200 variant of CD117 (S261G) purified protein, sequence (P10721 26-520 S261G limits assumed): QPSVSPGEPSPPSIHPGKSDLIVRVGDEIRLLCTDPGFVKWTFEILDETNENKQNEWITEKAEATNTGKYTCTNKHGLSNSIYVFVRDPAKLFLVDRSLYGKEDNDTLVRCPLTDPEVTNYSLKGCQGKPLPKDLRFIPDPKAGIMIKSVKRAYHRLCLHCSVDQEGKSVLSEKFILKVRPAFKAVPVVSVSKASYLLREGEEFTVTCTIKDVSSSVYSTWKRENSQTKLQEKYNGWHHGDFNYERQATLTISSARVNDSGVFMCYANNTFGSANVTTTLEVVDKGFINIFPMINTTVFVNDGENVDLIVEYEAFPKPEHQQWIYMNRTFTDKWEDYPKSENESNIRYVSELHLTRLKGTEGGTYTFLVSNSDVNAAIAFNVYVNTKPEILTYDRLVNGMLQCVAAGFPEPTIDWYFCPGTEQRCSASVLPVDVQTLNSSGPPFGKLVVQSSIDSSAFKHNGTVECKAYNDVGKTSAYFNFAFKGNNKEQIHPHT
T2 sequence (P10721 26-520 Y259C/N260D limits assumed): as the sequence (P10721 26-520 S261G limits assumed) above, with Y234C, N235D, G236S counted along it
T1 sequence (P10721 26-520 limits assumed): as the sequence (P10721 26-520 S261G limits assumed) above, with G236S counted along it
T6 sequence (P10721 26-976 Y259C/N260D limits assumed): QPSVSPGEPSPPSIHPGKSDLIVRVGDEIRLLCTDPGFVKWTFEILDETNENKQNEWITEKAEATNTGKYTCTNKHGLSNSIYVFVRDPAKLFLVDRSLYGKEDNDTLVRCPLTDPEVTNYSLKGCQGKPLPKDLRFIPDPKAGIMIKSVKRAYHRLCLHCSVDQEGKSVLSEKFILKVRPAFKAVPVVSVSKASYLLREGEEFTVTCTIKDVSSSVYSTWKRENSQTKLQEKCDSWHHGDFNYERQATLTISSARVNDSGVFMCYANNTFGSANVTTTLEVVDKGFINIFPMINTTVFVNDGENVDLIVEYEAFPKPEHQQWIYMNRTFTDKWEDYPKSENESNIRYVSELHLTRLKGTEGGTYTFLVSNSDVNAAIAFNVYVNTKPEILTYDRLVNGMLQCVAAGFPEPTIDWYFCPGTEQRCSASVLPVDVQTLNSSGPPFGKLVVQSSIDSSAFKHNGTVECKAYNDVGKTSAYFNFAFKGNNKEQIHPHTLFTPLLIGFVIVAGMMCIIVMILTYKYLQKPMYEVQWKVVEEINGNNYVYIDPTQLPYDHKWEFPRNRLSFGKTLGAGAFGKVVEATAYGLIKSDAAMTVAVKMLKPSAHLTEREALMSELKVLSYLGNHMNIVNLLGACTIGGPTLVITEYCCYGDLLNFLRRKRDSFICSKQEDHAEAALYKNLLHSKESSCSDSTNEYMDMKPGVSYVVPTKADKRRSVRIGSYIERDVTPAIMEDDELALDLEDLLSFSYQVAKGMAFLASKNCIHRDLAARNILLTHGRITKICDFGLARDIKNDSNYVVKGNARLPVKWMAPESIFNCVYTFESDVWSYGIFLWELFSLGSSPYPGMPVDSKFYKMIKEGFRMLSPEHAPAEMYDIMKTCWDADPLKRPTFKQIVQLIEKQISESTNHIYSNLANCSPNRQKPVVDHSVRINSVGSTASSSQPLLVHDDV
T5 sequence (P10721 26-976 limits assumed): as the sequence (P10721 26-976 Y259C/N260D limits assumed) above, with C234Y, D235N counted along it
T4 sequence (P10721 26-976 T144A limits assumed): as the sequence (P10721 26-976 Y259C/N260D limits assumed) above, with T119A, C234Y, D235N counted along it

B1: ABTx052 variant VL_N92R (antibody, human IgG1, V domains shown)
VH: QVQLVQSGAAVKKPGESLKISCKGSGYRFTSYWIGWVRQMPGKGLEWMGIIYPGDSDTRYSPSFQGQVTISAGKSISTAYLQWSSLKASDTAMYYCARHGRGYNGYEGAFDIWGQGTMVTVSS
VL: AIQLTQSPSSLSASVGDRVTITCRASQGISSALAWYQQKPGKAPKLLIYDASSLESGVPSRFSGSGSGTDFTLTISSLQPEDFATYYCQQFRSYPLTFGGGTKVEIK
Take B1: in [1], the affinity, expressed as Kd, was 0.683 nM; the koff (as a rule, a measure of how fast the partners let go of each other) amounted to 0.000434 s⁻¹; the kon (in general, the second-order rate constant of association) is 635000 M⁻¹ s⁻¹. Moreover, in assay [2], the binding result is reported as “no binding”. Moreover, the binding result in assay [3] was “no binding”.

B2: ABTx052 variant VL_N92Y (antibody, human IgG1, V domains shown)
VH: QVQLVQSGAAVKKPGESLKISCKGSGYRFTSYWIGWVRQMPGKGLEWMGIIYPGDSDTRYSPSFQGQVTISAGKSISTAYLQWSSLKASDTAMYYCARHGRGYNGYEGAFDIWGQGTMVTVSS
VL: AIQLTQSPSSLSASVGDRVTITCRASQGISSALAWYQQKPGKAPKLLIYDASSLESGVPSRFSGSGSGTDFTLTISSLQPEDFATYYCQQFYSYPLTFGGGTKVEIK
Turning to B2, in [1], binding was characterised by a dissociation constant (Kd) of 0.841 nM, the off-rate constant (koff) was found to be 0.000635 s⁻¹ and the kon worked out at 755000 M⁻¹ s⁻¹. Besides, the binding result in assay [2] was “no binding”. In addition, the binding result in assay [3] was “no binding”.

B3: ABTx052 variant VL_Y94S (antibody, human IgG1, V domains shown)
VH: QVQLVQSGAAVKKPGESLKISCKGSGYRFTSYWIGWVRQMPGKGLEWMGIIYPGDSDTRYSPSFQGQVTISAGKSISTAYLQWSSLKASDTAMYYCARHGRGYNGYEGAFDIWGQGTMVTVSS
VL: AIQLTQSPSSLSASVGDRVTITCRASQGISSALAWYQQKPGKAPKLLIYDASSLESGVPSRFSGSGSGTDFTLTISSLQPEDFATYYCQQFNSSPLTFGGGTKVEIK
B3: in assay [1], the affinity, expressed as Kd, was 3.38 nM; the dissociation rate constant (koff) amounted to 0.00218 s⁻¹; the on-rate (kon) was 643000 M⁻¹ s⁻¹. The binding result in assay [2] is listed as “no binding”. Also, the binding result in assay [3] is given as “no binding”.

B4: ABTx052 variant VL_Y94H (antibody, human IgG1, V domains shown)
VH: QVQLVQSGAAVKKPGESLKISCKGSGYRFTSYWIGWVRQMPGKGLEWMGIIYPGDSDTRYSPSFQGQVTISAGKSISTAYLQWSSLKASDTAMYYCARHGRGYNGYEGAFDIWGQGTMVTVSS
VL: AIQLTQSPSSLSASVGDRVTITCRASQGISSALAWYQQKPGKAPKLLIYDASSLESGVPSRFSGSGSGTDFTLTISSLQPEDFATYYCQQFNSHPLTFGGGTKVEIK
B4: in assay [1], the affinity, expressed as Kd, was 3.16 nM; the koff came to 0.00178 s⁻¹; the kon was 563000 M⁻¹ s⁻¹. The binding result in [2] is “no binding”. Also, the binding result in assay [3] is given as “no binding”.

B5: ABTx070 (antibody, human IgG1, kappa, V domains shown)
VH: EVQLVESGGGVVRPGGSLRLSCAASGFTFDDYGMSWVRQAPGKGLEWVSDINWNGGSTGYADSVKGRFTISRDNAKNSLYLQMNSLRAEDTALYYCARESWDGSGIYYMDVWGKGTTVTVSS
VL: DIVMTQSPSFLSASVGDRVTITCRASQGISSYLNWYQQKPGKAPKLLIYAASTLQNGVPSRFSGSGSGTDFTLTISSLQPEDFATYYCQQSYSTPITFGQGTRLEIKR
For B5, the dissociation constant (Kd) (usually the concentration at which binding is half-saturated) with Cyno CD117 amounted to 0.486 nM; in [4], 6.5 nM. The binding result in assay [5] is “no binding”.

B6: ABTx071 (antibody, human IgG1, kappa, V domains shown)
VH: EVQLVESGGGVVRPGGSLRLSCAASGFTFDDYGMSWVRQAPGKGLEWVSGINWNGGSTGYADSVKGRFTISRDNAKNSLHLQMNSLRAEDTALYYCARESWNYEGYYYMDVWGKGTTVTVSS
VL: AIQMTQSPSFLSASVGDRVTITCRASQGISSYLAWYQQKPGKAPKLLIYAASTLQNGVPSRFSGSGSGTEFTLTISSLQPEDFATYYCQQLNSYPYTFGQGTKLEIKR
In the case of B6, the values for the Kd (with Cyno CD117; in assay [4]) were 4.28 nM and 0.523 nM, respectively. Moreover, the binding result in assay [5] was “no binding”.

B7: ABTx196 (antibody, human IgG1, V domains shown)
VH: EVQLVESGGGLVQPGRSLRLSCAASGFTFDDYAMHWVRQAPGKGLEWVSGISWNSGTIGYADSVKGRFTNSRDNAKNSLYLEMNSLRAEDTALYYCAKDSPPGYCSSASCYGAFDIWGQGTMVTVSS
VL: DVVMTQSPGTLSLSPGERATLSCRASQSVSSSYLAWYQQKPGQAPRLLIYGASSRATGIPDRFSGSGSGTDFTLTISRLEPEDFAVYYCQQSETCLTFGGGTKLEIK
As to B7, the “IC50 (M), depletion of human CD34+ HSPCs” value in [6] worked out at 1.3e-05 M. Moreover, the dissociation constant (Kd) in assay [7] and in [9] was 8.18 nM throughout. Besides, the concentration for a half-maximal effect (EC50) in assay [8] and in [10] was 5.21 nM each time. In assay [9], this molecule showed a koff of 0.000691 s⁻¹. In assay [9], the association rate constant (kon) worked out at 84400 M⁻¹ s⁻¹.

B8: ABTx062 (antibody, human IgG1, kappa, V domains shown)
VH: EVQLVESGGGLVQPGRSLRLSCSASGFTFDDYAMHWVRQAPGKGLEWVSGISWNSGTIGYADSVKGRFTISRDNAKNSLYLQMNSLRAEDTALYYCAKDSPPGYCSSASCYGAFDIWGQGTTVTVSS
VL: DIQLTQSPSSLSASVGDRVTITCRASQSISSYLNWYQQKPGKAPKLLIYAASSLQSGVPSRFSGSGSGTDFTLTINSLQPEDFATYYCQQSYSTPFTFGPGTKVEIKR
B8: the values for the dissociation constant Kd (in the assay with Cyno CD117; in assay [4]) were 31.8 nM and 18 nM, respectively. Moreover, the binding result in assay [11] was “no binding”.

B9: ABTx061 (antibody, human IgG1, kappa, V domains shown)
VH: EVQLVESGGGLVQPGRSLRLSCAASGFTFDDYAMHWVRQAPGKGLEWVSGISWNSGSIGYADSVKGRFTISRDNAKNSLYLQMNSLRAEDTALYYCAKDTPLGYCSTTSCYGAFDIWGQGTMVTVSS
VL: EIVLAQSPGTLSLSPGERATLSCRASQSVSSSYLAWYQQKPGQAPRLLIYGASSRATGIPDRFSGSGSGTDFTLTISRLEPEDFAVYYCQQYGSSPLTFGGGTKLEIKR
On to B9, for which the Kd was 29.5 nM with Cyno CD117 and 18.6 nM in [4]. Also, the binding result in assay [11] is given as “no binding”.

B10: ABTx025 (antibody, human IgG1, kappa, V domains shown)
VH: EVQLVESGGGLVQPGRSLRLSCAASGFTFDDYAMHWVRQAPGKGLEWVSGISWNSGTIGYADSVKGRFTNSRDNAKNSLYLEMNSLRAEDTALYYCAKDSPPGYCSSASCYGAFDIWGQGTMVTVSS
VL: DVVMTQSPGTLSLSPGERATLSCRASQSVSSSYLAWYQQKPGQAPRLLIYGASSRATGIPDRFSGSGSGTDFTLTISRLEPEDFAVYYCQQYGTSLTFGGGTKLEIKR
With B10, the Kd in the assay with Cyno CD117 is 5.31 nM; in assay [4], 1.25 nM; in assay [7], 1470 nM; in [9] it was 1470 nM. The binding result in assay [11] is “no binding”. The off-rate (koff) in [9] is 0.0509 s⁻¹. The molecule further returned an on-rate constant (kon) in [9] of 37200 M⁻¹ s⁻¹.

B11: ABTx198 (antibody, human IgG1, V domains shown)
VH: EVQLVESGGGLVQPGRSLRLSCAASGFTFDDYAMHWVRQAPGKGLEWVSGISWNSGTIGYADSVKGRFTNSRDNAKNSLYLEMNSLRAEDTALYYCAKDSPPGYCASASCYGAFDIWGQGTMVTVSS
VL: DVVMTQSPGTLSLSPGERATLSCRASQSVSSSYLAWYQQKPGQAPRLLIYGASSRATGIPDRFSGSGSGTDFTLTISRLEPEDFAVYYCQQDSLGLTFGGGTKLEIK
Consider B11, for which the “IC50 (M), depletion of human CD34+ HSPCs” value in assay [6] is 3.59e-06 M. The molecule further had an equilibrium dissociation constant (Kd) in assay [7] of 1.2 nM. Moreover, in assay [8], it took 5.42 nM to reach a half-maximal effect (EC50). In [9], this molecule showed a dissociation constant Kd of 1.2 nM, a koff of 8.74e-05 s⁻¹ and an on-rate (kon) of 72800 M⁻¹ s⁻¹. Moreover, the 50% effective concentration (EC50) (as a rule, the concentration that produces a half-maximal response) in [10] was 5.42 nM.

B12: ABTx167 (antibody, human IgG1, kappa, L234A L235A)
heavy: QVQLVQSGAAVKKPGESLKISCKGSGYRFTSYWIGWVRQMPGKGLEWMGIIYPGDSDTRYSPSFQGQVTISAGKSISTAYLQWSSLKASDTAMYYCARHGRGYNGYEGAFDIWGQGTMVTVSSASTKGPSVFPLAPSSKSTSGGTAALGCLVKDYFPEPVTVSWNSGALTSGVHTFPAVLQSSGLYSLSSVVTVPSSSLGTQTYICNVNHKPSNTKVDKKVEPKSCDKTHTCPPCPAPEAAGGPSVFLFPPKPKDTLYITREPEVTCVVVAVSHEDPEVKFNWYVDGVEVHNAKTKPREEQYNSTYRVVSVLTVLHQDWLNGKEYKCKVSNKALPAPIEKTISKAKGQPREPQVYTLPPSRDELTKNQVSLTCLVKGFYPSDIAVEWESNGQPENNYKTTPPVLDSDGSFFLYSKLTVDKSRWQQGNVFSCSVMHEALHNHYTQKSLSLSPG
light: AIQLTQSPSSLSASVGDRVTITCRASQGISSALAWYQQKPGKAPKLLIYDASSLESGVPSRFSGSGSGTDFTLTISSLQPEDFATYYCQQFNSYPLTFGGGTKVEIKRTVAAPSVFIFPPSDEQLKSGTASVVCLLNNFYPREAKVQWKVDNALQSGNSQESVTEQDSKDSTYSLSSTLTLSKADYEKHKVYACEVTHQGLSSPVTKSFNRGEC
As to B12, the “IC50 [M], viability of unedited HSCs with 100 ng/mL SCF, 5-7 days” value in assay [12] stood at 2.56e-07 M.

(Values after patent US20260166085A1 (BEAM THERAPEUTICS, published 2026).)
